In the domain aggregation screens of Martell et al. (2025):

Assay: soluble fraction after stress (log2 fold change); higher = more stays soluble; pooled small domains, quantitative proteomics
Settings: stress: pH 4
In short: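 After pH 4 stress, pooled custom libraries of small protein domains were quantified with high-throughput quantitative proteomics. Aggregation propensity is taken from the fold change in each domain's soluble amount following the acid stress. The scale is log2, where higher values mean more stayed soluble.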

HMDGTVRGKTTFQELLDWGVPQERIEAVLGGPIPAPGVVIKDYVTAQGKEFSAVRDALQAEVDAVLK
soluble fraction (log2): -0.229

HMGLPPIATGVNDNMSFSQAFAAARAEVGAGGAFEWHGRVYGTYYKNEWDGMSAQERHDFEIAAIRGS
soluble fraction (log2): -0.0114

HMPPSRFNELSMWFQEQLTEAGLKVDSGALKMLIEWLGQDQARLPSIIEVLVSTYGTKKKLTVDEIEPFL
soluble fraction (log2): -1.02

HMKIEETLGKTAQVYIPIPQYLSGIGKVTLSVRGSLRELDAMTEEEKIPSNTIVRIVKVQDQVLFVKRA
soluble fraction (log2): -0.0641

HMNGDYFEYRYAVNGSRSTPPSLSKTSRNPSGWSTTVPTVGNLQYLWFTVAKINGETNSLIQNWSTPARQT
soluble fraction (log2): 0.143

HMDSSNLSLIAGVGPTIEKKLRAAGITSWEQIAAWTEADVAKYDEELNLRGRITRDEWIEQAKELLAGKPP
soluble fraction (log2): 0.309

HMSVEYRKTLSDGNEYQIVKEKNGYVIKKSLNEGLDYLEPMKNRKYYSSYSQAFKRLNLIAKEVNINEGYD
soluble fraction (log2): 0.0946

HMSIGKEATPDDIVPNIRVYHATFGYGNVIKTDGVSHDKKAVVNFDSVGEKTLLLKFAKLILPY
soluble fraction (log2): -0.754

HMSTILERLIMLQEQSGMNQKQLQKELGLSNSAFSDWKKGKGRPSVEALVRFSEFFGVSMDWLAFG
soluble fraction (log2): -0.845

HMNASVIADLFRQTGASVMIHGHTHRPDIHALEANGDAAFRAVLGAWHTEGSMIRVTQDDVTLIAFP
soluble fraction (log2): 0.173

HMHQKELLNLSYKEAKRYILDDFERVFFTNLLRKTGGNVSRAAQLAQVHRKNLYVKLTELGIDPRQFG
soluble fraction (log2): -0.585

HMAVKYTKDDFLYTEKPYEAIYDYKNDPFMHNLKIEQMAQQAAEVGVKTFKGLYKNYVKMREMQRGANV
soluble fraction (log2): 0.0966

HMENEDMTGDIRVIDYIRNVAEYIQTTKGQASASQMLDRFLFPPELQYTPLDKLSGGEQRRLYLLKVLMEA
soluble fraction (log2): -0.575

HMGRLNMRRIRDVLRLKFGQGLSERQVAASLGLSKTSVGTYLHRARQAGLTWPLPQGLDDDGLELLLFP
soluble fraction (log2): 0.0376

HMGVHSVVPDIKNKHYGEAKAILAANGLSIEISDSIYDRSVAPGTVVESWPKAGAIVKGDRAVFVTLTAF
soluble fraction (log2): -1.17

HMSVALSENIKTRRKALKMSQEYVAEQLDISRQAVAKWEAGKSEPTTENLVKLAALFEMSVSELVE
soluble fraction (log2): 0.35

HMDSYSILGIEKESSMEDIEKAYIDKISKIKKEVKNEKNAAAFEAVLTKAYNDILSQKENISEEQELAE
soluble fraction (log2): 0.22

HMAPQAETLLRQVMALPSKDRAVLYLHYYEGFSTREVGDMLHISQSAVTTRLLRARKKLKEIL
soluble fraction (log2): -0.754

HMNGEAQTMYVTARTLNVRKGPGTSYAKAGTLSRGTAVQVVGFSGNWAKLSNGYYVSTSYLAKI
soluble fraction (log2): 0.0208

HMRLPLYLALAQTLRQEIDAKQYKIGAHLPPEDQLVVKYGVSRHTVRQALQELKNEGLITSKAGIGTIVSS
soluble fraction (log2): 0.154

HMRSVTLQTDREGDILYVDGKQIGVSPQRLELSYGVHTIRAERGEQHTEKELEVTETGGETVVTLGFG
soluble fraction (log2): -0.0908

HMVQDDDPNSVAKFIDQVIESNPEQVEQYRSGKEKVFNFFLGQTMRLSKGKANPDLVSELLKEKLS
soluble fraction (log2): -0.00692

HMGFSERLAQAMSHAGYTQGGLAKAVGMAQSSVNKLLNNANSSRKTVEIASVLGVRPEWLSTGEGDML
soluble fraction (log2): 0.188

HMLTYPEHVRLRMIELRKTRSLSQSEFGTYLGLSYQTISSLELGRHEWSLAHIQTALLRFELPPNYF
soluble fraction (log2): -1.82

HMSETIVFGQQKAINTLSSEAGLSSAELNNYLKKRYQRPLFQLTVSEGADLIQGFQDGTLTKASITQYVSQ
soluble fraction (log2): 0.22

HMGQVGIPFSDFLAEVENGQVREVVIKGNDISGTFNDNRGFSTYAPNDPNLVEKLTKRGVVINAQPTE
soluble fraction (log2): 0.123

HMISESLLDEIPGLGETRRNSLLREFGSVAMIRKASAEEIASRVRGIGAEFAAAIHDFLQTH
soluble fraction (log2): 0.0801

HMIEDMTINIEERLSLNGDIKKSEYILQYIKPDFIRKVILSPELNKGEIYIYDSKKKVMYLPLFDQVSEEI
soluble fraction (log2): -1.09

HMQDSSGENNPQSKLTQQQVDLLMKDLKETNVEFDKLAEKYNVSIKTIRNVNTGIAWRKNDITYPIREP
soluble fraction (log2): -0.255

HMGHEISLNNSRFLKLLNKTKISISNDDTRHYLNGIFLHLTEAHGRQFLTGVATDSHRLSSSSLEID
soluble fraction (log2): -0.226

HMRKATEVPFTAFKDSIENSHGKLSKAGLARHLADEYGMSQRNMERRINNLIDNKTIKYGNEGGLVWIG
soluble fraction (log2): 0.22

HMRQSDIAAAFRESILRSSKGFQYLHTRDFVTALRRRGIHLSEVEANSWIAREKTYFVDSALDHSENRLWI
soluble fraction (log2): -0.634

HMDRMINYSPIVAKVPQDDYTTKVYNIPIYSELTVVDKISEPEPLIAPIYRFKYITPEDEEIEFDIPV
soluble fraction (log2): -0.39

HMSYPEIFQSLTEREQKIADMIAEHLSNKEIAEKMFLSEGTIKQYINQIYSKLQITGDIRNKRKQLIELFH
soluble fraction (log2): -0.0222

HMNDVEAIDDALKDLHKVSPDLAALVEMKFFGGMTEPEISEILGVSERTVRREWEKARAALLVLLE
soluble fraction (log2): -1.18

HMTTAGTAIVQTGNSGKLNLREQAYANAGILGRYSNGTAVTVLQKGAAWSYVEVKGQKGYMMSKFLKFTS
soluble fraction (log2): -0.341

HMENLSGNDIKYLRKKYNLTQKELADALGLQKFGDRTIRRWEAEETHPSKLEQSSIQSFFNSLK
soluble fraction (log2): 0.111

HMATSLTEQEKLIFGLLKKQSPIELSSLKEQAGLSNKKWDKAIKGLSTQQLAKVTKTENGLFVHLLQ
soluble fraction (log2): 0.12
